The source of these data is patent publication US20250376519A1 (JIANGSU HENGRUI PHARMACEUTICALS, published 2025).

Experiment [1] concerns the target T1, monkey DLL3 protein (screening antigen) (cynomolgus monkey, UniProt Q9NYJ7 27-492 (human entry), limits assumed).
T1 chain: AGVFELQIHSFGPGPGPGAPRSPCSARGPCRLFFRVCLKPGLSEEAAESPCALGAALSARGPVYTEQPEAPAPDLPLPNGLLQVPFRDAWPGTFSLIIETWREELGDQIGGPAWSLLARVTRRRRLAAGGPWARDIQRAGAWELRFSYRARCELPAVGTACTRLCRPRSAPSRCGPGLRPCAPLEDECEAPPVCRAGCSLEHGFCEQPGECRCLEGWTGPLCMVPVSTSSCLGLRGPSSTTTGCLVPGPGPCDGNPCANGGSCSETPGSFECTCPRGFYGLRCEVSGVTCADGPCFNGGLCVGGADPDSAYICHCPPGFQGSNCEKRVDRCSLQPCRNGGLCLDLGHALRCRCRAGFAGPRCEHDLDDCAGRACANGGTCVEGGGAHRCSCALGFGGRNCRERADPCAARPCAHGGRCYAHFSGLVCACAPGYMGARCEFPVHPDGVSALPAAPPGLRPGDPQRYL
The experiment can be described thus: ELISA, hybridoma supernatant. As to the method:
(§1) Spleen lymphocytes and the myeloma cells, Sp2/0 cells (ATCC® CRL-8287™), were fused by following an optimized electrofusion procedure to obtain hybridoma cells. Based on the growth density of hybridoma cells, the hybridoma culture supernatant was assayed using an ELISA method with binding to DLL3 protein and a FACS method with binding to DLL3 CHO-s cells.
On the technique in general: ELISA stands for enzyme-linked immunosorbent assay.

For experiment [2], the target named is T2, human DLL3 protein (screening antigen) (human, UniProt Q9NYJ7 27-492, limits assumed).
T2 construct: Biotinylated in the phage panning
T2 sequence: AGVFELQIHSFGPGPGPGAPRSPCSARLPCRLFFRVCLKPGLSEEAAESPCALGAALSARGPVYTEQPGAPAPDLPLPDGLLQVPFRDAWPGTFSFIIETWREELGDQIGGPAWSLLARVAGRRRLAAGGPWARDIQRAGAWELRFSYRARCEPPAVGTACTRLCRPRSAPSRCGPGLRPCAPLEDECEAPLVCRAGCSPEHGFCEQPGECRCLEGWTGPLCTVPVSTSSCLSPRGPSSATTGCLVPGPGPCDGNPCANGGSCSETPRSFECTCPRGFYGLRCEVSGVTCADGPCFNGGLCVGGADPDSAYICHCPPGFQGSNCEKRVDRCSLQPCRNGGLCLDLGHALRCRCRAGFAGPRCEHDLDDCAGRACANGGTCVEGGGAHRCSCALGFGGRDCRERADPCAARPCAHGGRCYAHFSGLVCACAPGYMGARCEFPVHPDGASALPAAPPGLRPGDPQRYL
In words: phage ELISA.

Experiment [3] deals with T1, monkey DLL3 protein (screening antigen). In words: phage ELISA.
Another experiment has as its target T3, human DLL3 on cells (human, UniProt Q9NYJ7 27-618).
T3 construct: Endogenous on H1184 and SHP77; Cell line is named under assay; also called H1184; DLL3/H82
T3 sequence: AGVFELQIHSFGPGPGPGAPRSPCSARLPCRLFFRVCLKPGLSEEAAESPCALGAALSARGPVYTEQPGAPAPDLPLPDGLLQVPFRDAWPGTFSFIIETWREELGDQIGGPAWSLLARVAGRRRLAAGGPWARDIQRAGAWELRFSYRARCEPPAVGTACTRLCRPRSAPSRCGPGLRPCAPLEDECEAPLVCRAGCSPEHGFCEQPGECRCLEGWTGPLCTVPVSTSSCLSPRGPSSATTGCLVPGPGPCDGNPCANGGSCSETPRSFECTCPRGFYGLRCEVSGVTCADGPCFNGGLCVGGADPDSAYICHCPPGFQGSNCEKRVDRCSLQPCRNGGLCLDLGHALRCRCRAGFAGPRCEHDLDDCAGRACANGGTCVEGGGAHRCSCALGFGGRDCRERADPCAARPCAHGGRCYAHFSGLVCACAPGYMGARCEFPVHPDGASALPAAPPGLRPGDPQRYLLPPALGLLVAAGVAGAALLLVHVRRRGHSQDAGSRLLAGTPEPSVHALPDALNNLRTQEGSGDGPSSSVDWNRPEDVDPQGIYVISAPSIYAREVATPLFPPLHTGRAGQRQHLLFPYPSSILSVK
The experiment can be described thus: FACS, DLL3 CHO-s cells, hybridoma supernatant. The procedure: as §1
In general terms: In flow cytometry, cells or beads pass a laser one at a time.

The target in experiment [4] is T2, human DLL3 protein (screening antigen). In words: ELISA, hybridoma supernatant. As to the method:
as §1

B1: mAb98 (antibody, V domains shown)
VH: EVQLVESGGGLVKPGGSLKLSCAASGFTFSDYGIHWVRQAPEKGLEWVAYISSGGYTIYYADTVKGRFTISRDNAKNTLFLQMTSLRSEDTAMYYCARGDYDDIFYTMDYWGQGTSVTVSS
VL: DIQMTQTTSSLSASLGDRVTISCRASRDITKFLNWYQQKPDGTVKLLIYYTSRLHSGVPSRFSGSGSGTDYSLTISNLDQEDIATYFCQQGNTLPWTFGGGTKLDIK
notes: murine hybridoma antibody (culture supernatant)
On to B1, for which the binding result in experiment [1] is on record as “binds”.

B2: mAb30 (antibody, V domains shown)
VH: EVRLQQFGPVLVKPGASVKMSCKASGYTFTDYYMNWVKQSHGKSLEWIGIINPYNGDTSYNQKFRGKATLTVDKSSSTAYMELNSLTSEDSAVYYCARYHYGPHLEGYFDVWGTGTTLTVSS
VL: DIVMTQSPKSMSMSVGERVTLSCKASENVGYVSWYQQKPEQSPKLLIYGASNRYTGVPDRFTGSGSATDFTLTISSVQAEDLADYHCGQSYSYPLTFGSGTKLEIK
On to B2, for which the binding result in experiment [2] and in experiment [3] was “binds” throughout.

B3: mAb110 (antibody, V domains shown)
VH: EVQLQQSGPVLVKPGASVKMSCKTSGYTFTDYYMNWVKQSHGKSLEWIGIINPYNGGTSYTQKFKGKATLTVDKSSSTAYMELNSLTSEDSTVYFCARHFYDSSYLTYSTMDYWGQGTSVTVSS
VL: NIVMTQSPKSMSMSVGERVTLSCKASENVGIFVSWYQQKPKQSPKLLIYGASNRYTGVPDRFTGSGSATDFTLTISSVQAEDLADYYCGQSHSYPLTFGTGTKLELK
notes: as for B1
On to B3, for which the binding result (in the experiment with human DLL3 on cells; in experiment [4]; in experiment [1]) was “binds” in each case.

B4: mAb6 (antibody, V domains shown)
VH: EVQLQQSGPVLVKPGASVKMSCKASGYTFTDYYMNWVKQSHGKSLEWIGIINPYSGVTIYNHKFKGKATLTVDKSSNTAYMELNSLTSEDSAVYYCARQDSLLDYAMDYWGQGTSVTVSS
VL: DILMTQSPSSMSVSLGDTVSITCHASQGISGNMGWLQQKPGKSFKGLIYHGANLEDGVPSRFSGSGSGADYSLTISSLESEDFADYYCVQYAQFPYTFGGGTKLEIK
notes: as for B1
Regarding B4, the binding result in experiment [1] is reported as “binds”.
